# Test results taken from the RNAGym collection of RNA variant scans (doi:10.7554/elife.80360).
# B1: CPEB3 Ribozyme (parent)
# chain: GGGGGCCACAGCAGAAGCGUUCACGUCGCGGCCCCUGUCAGAUUCUGGUGAAUCUGCGAAUUCUGCUGU
# Variants of: B1
# Assay: self-cleavage, relative activity (ratio to wild type); higher = more cleavage; co-transcriptional
row,Variant,self-cleavage
1,GGGGGCCACAGGAGAAGCGUUCACGUCGGGGCCCCUGUCAGAUUCUGGUGAAUCUGCGAAUUCUGCUGU,0.152
2,GGGGGCCACAGGAGAAGCGUUCACGUCGCGGCCCCUGUCAGAUUCUGGUGUAUCUGCGAAUUCUGCUGU,0.854
3,GGGGGCCACAGAAGAAGCGUUCACGUCGCGGCCCCUGUCAGAUUCUGGUGAAUCUGCGAAUUCCGCUGU,0.58
4,GGGGGCCACAGAAGAAGCGUUCACGUCGCGGCCCCUGUCAGAUUCUGGUGAAUCUGCGAAUUCAGCUGU,0.582
5,GGGGGCCACAGGAGAAGCGUUCACGUCGCGGCCCCUGCCAGAUUCUGGUGAAUCUGCGAAUUCUGCUGU,0.745
6,GGGGGCCACAGGAGAAGCGUUCACCUCGCGGCCCCUGUCAGAUUCUGGUGAAUCUGCGAAUUCUGCUGU,0.166
7,GGGGGCCACAGGAGAAUCGUUCACGUCGCGGCCCCUGUCAGAUUCUGGUGAAUCUGCGAAUUCUGCUGU,0.165
8,GGGGGCCACAGGGGAAGCGUUCACGUCGCGGCCCCUGUCAGAUUCUGGUGAAUCUGCGAAUUCUGCUGU,0.48
9,GGGGGCCACAGGAGAAGCGUUCAAGUCGCGGCCCCUGUCAGAUUCUGGUGAAUCUGCGAAUUCUGCUGU,0.374
10,GGGGGCCACAGGAGAAGCGUUCAUGUCGCGGCCCCUGUCAGAUUCUGGUGAAUCUGCGAAUUCUGCUGU,0.435
11,GGGGGCCACAGGAGAAGCGUUCAGGUCGCGGCCCCUGUCAGAUUCUGGUGAAUCUGCGAAUUCUGCUGU,0.199
12,GGGGGCCACAGUAGAAGCGUUCAAGUCGCGGCCCCUGUCAGAUUCUGGUGAAUCUGCGAAUUCUGCUGU,0.713
13,GGGGGCCACAGUAGAAGCGUUCAGGUCGCGGCCCCUGUCAGAUUCUGGUGAAUCUGCGAAUUCUGCUGU,0.316
14,GGGGGCCACAGUAGAAGCGUUCAUGUCGCGGCCCCUGUCAGAUUCUGGUGAAUCUGCGAAUUCUGCUGU,0.805
15,GGGGGCCACAGGAGAAGCGUUCACGUCGCGGCCCCUGUCAGAUUCUGGUGAAUGUGCGAAUUCUGCUGU,0.518
16,GGGGGCCACAGGAGAAGCGUUCACGUCGCGGCCCCUGUCAGAUUCUGGUGAAUCUGCGAAUUCUGCUCU,0.832
17,GGGGGCCACAGGAGAAGCGUUCACGUCGCGGCCCCUGUCAGAUUCUGGUGAAUCUGCGAAUUCUGCUAU,0.972
18,GGGGGCCACAGGAGAAGCGUUCACGUCGCAGCCCCUGUCAGAUUCUGGUGAAUCUGCGAAUUCUGCUGU,0.43
19,GGGGGCCACAGGAGAAGCGUUCACGUCGCUGCCCCUGUCAGAUUCUGGUGAAUCUGCGAAUUCUGCUGU,0.26
20,GGGGGCCACAGGAGAAGCGUUCACGUCGCGGCCCCUGUAAGAUUCUGGUGAAUCUGCGAAUUCUGCUGU,0.484
21,GGGGGCCACAGGAGAAGCGUUCACGUCGCGGCCCCUGUCAGAUUCUGGCGAAUCUGCGAAUUCUGCUGU,0.827
22,GGGGGCCACAGGAGAAGCGUUCACGUCGCGGCCCCUGUCAGAUUCUGGAGAAUCUGCGAAUUCUGCUGU,0.934
23,GGGGGCCACAGUAGAAGCGUUCACGUCGCGGCCCCUGUCAGAUUCUGGUGCAUCUGCGAAUUCUGCUGU,0.977
24,GGGGGCCACAGGAGAAGCGUUCACGUCGCGGCCCCUGUCAGAUUCUGGUGAAUCUGCGAAUUCUGCCGU,0.917
25,GGGGGCCACAGGAGAAGCAUUCACGUCGCGGCCCCUGUCAGAUUCUGGUGAAUCUGCGAAUUCUGCUGU,0.137
26,GGGGGCCACAGGAGAAGCUUUCACGUCGCGGCCCCUGUCAGAUUCUGGUGAAUCUGCGAAUUCUGCUGU,0.0842

row,Variant,self-cleavage
1,GGGGGCCACAGGAGAAGCCUUCACGUCGCGGCCCCUGUCAGAUUCUGGUGAAUCUGCGAAUUCUGCUGU,0.0934
2,GGGGGCCACAGGAGAAGCGUUCACGUCGCGGCCCCUCUCAGAUUCUGGUGAAUCUGCGAAUUCUGCUGU,0.205
3,GGGGGCCACAGGAGAAGCGUUCACGUCGCGGCCCCUUUCAGAUUCUGGUGAAUCUGCGAAUUCUGCUGU,0.223
4,GGGGGCCACAGGAGAAGCGUUCACGUCGCGGCCCCUGUCAGAUUCUGCUGAAUCUGCGAAUUCUGCUGU,0.949
5,GGGGGCCACAGGAGAAGCGUUCACGUCGCGGCCCCUGUCCGAUUCUGGUGAAUCUGCGAAUUCUGCUGU,0.318
6,GGGGGCCACAGGAGAAGCGUUCACGUCGCGGCCCCCGUCAGAUUCUGGUGAAUCUGCGAAUUCUGCUGU,0.669
7,GGGGGCCACAGGAGAAGCGUUCACGUCGCGGCCCCUGUCAGAUUCUGGUGAAUCUACGAAUUCUGCUGU,0.741
8,GGGGGCCACAGGAGAAGCGUUCACGUCGCGGCCCCUGUCAGAUUCUGGUGAAUCUUCGAAUUCUGCUGU,0.544
9,GGGGGCCACAGAAGAAGCGUUCACGUCGCGGCCCCUGUCAGAUUCUGGUGAAUCUGCGAAUCCUGCUGU,0.338
10,GGGGGCCACAGUAGAAGCGUUCCCGUCGCGGCCCCUGUCAGAUUCUGGUGAAUCUGCGAAUUCUGCUGU,0.93
11,GGGGGCCACAGGAGAAGCGUUCGCGUCGCGGCCCCUGUCAGAUUCUGGUGAAUCUGCGAAUUCUGCUGU,0.721
12,GGGGGCCACAGGAGAAGCGUUCUCGUCGCGGCCCCUGUCAGAUUCUGGUGAAUCUGCGAAUUCUGCUGU,0.55
13,GGGGGCCACAGGAGAAGCGUUCCCGUCGCGGCCCCUGUCAGAUUCUGGUGAAUCUGCGAAUUCUGCUGU,0.628
14,GGGGGCCACAGGAGAAGCGUUCACGUCGCGGCCCCUGUCAGAUUCUGGUGAAUCUGCCAAUUCUGCUGU,0.834
15,GGGGGCCACAGGAGAAGCGUUCACGUCGCGGCCCCUGUCAGAGUCUGGUGAAUCUGCGAAUUCUGCUGU,0.361
16,GGGGGCCACAGUAGCAGCGUUCACGUCGCGGCCCCUGUCAGAUUCUGGUGAAUCUGCGAAUUCUGCUGU,0.389
17,GGGGGCCACAGGAGAAGCGUUCACGUCGCGGCCCCUGUCAGAUUCUGGUGAAUCUGCGAAUUCCGCUGU,0.566
18,GGGGGCCACAGGAGAAGCGUUCACGUCGCGGCCCCUGUCAGAUUCUGGUGAAUCUGCGAAUUCGGCUGU,0.395
19,GGGGGCCACAGUAGAAGCGUUCACGUCGCGGCCCCUGUCUGAUUCUGGUGAAUCUGCGAAUUCUGCUGU,0.643
20,GGGGGCCACAGAAGAAGCGUUCACGUCGCGGCCCCUGUCAGAUUCUGGUGAAUCUGCGAAUUCUGCUGG,0.925
21,GGGGGCCACAGGAGAAGCGUUCACGUCGCGGCCCCUGUCAGAUUCUGGUGAAUCUGCGAUUUCUGCUGU,0.367
22,GGGGGCCACAGGAGAAGCGUUCACGUCUCGGCCCCUGUCAGAUUCUGGUGAAUCUGCGAAUUCUGCUGU,0.11
23,GGGGGCCACAGGAGAAGCGUUCACGUCGCGGCCCCUGUCAGAUUCUGGUGAAUCUGCGAAUUCUGCUGC,1.06
24,GGGGGCCACAGUAGAAGCGUUCACGUCGCGGCCCCUGUCAGAUUCUGGUGAAUCUGCGAUUUCUGCUGU,0.374
25,GGGGGCCACAGUAGAAGCGUUCACGUCGCGGCCCCUGUCAGAUUCUGGUGAUUCUGCGAAUUCUGCUGU,0.952
26,GGGGGCCACAGGAGAAGCGUUCACGUCGCGGCCCCUGUCAGAUUCUGGUGAAUCUGCGAAUUUUGCUGU,0.53

row,Variant,self-cleavage
1,GGGGGCCACAGGAGAAGCGUUCACGUCGCGGCUCCUGUCAGAUUCUGGUGAAUCUGCGAAUUCUGCUGU,0.405
2,GGGGGCCACAGGAGACGCGUUCACGUCGCGGCCCCUGUCAGAUUCUGGUGAAUCUGCGAAUUCUGCUGU,0.177
3,GGGGGCCACAGGAGAUGCGUUCACGUCGCGGCCCCUGUCAGAUUCUGGUGAAUCUGCGAAUUCUGCUGU,0.486
4,GGGGGCCACAGGAGAAGCGUUGACGUCGCGGCCCCUGUCAGAUUCUGGUGAAUCUGCGAAUUCUGCUGU,0.208
5,GGGGGCCACAGGAGAAGCGUUAACGUCGCGGCCCCUGUCAGAUUCUGGUGAAUCUGCGAAUUCUGCUGU,0.164
6,GGGGGCCACAGGAGAAGCGUUCACGUCGCGGCCCCUGUCAGAUUCUGGUGAAUCUGCGUAUUCUGCUGU,0.4
7,GGGGGCCACAGUAGAAGCGUUAACGUCGCGGCCCCUGUCAGAUUCUGGUGAAUCUGCGAAUUCUGCUGU,0.2
8,GGGGGCCACAGGAAAAGCGUUCACGUCGCGGCCCCUGUCAGAUUCUGGUGAAUCUGCGAAUUCUGCUGU,0.127
9,GGGGGCCACAGGAUAAGCGUUCACGUCGCGGCCCCUGUCAGAUUCUGGUGAAUCUGCGAAUUCUGCUGU,0.118
10,GGGGGCCACAGGACAAGCGUUCACGUCGCGGCCCCUGUCAGAUUCUGGUGAAUCUGCGAAUUCUGCUGU,0.0732
11,GGGGGCCACAGGAGAAGCGCUCACGUCGCGGCCCCUGUCAGAUUCUGGUGAAUCUGCGAAUUCUGCUGU,0.119
12,GGGGGCCACAGGAGAAGCGUUCACGUGGCGGCCCCUGUCAGAUUCUGGUGAAUCUGCGAAUUCUGCUGU,0.1
13,GGGGGCCACAGAAGAAGCGUUCACGUCGCGGCCCCUGUCAGAUUCUGGUGAAUCCGCGAAUUCUGCUGU,0.366
14,GGGGGCCACAGGAGAAGCGUUCACGUCGCGGCCCCUGUCAGAUUCUGGUGAAUCUGCGAAUUCUGCUGU,0.92
15,GGGGGCCACAGUAGAAGCGUUCACGUCGCGGCCCCUGUCAGAUUCUGGUGAAUCUGCGAAUUCUGCUGU,0.996
16,GGGGGCCACAGGAGAAGCGUUCACGUCGCGGCCGCUGUCAGAUUCUGGUGAAUCUGCGAAUUCUGCUGU,0.69
17,GGGGGCCACAGGAGAAGCGUUCACGUCGCGGCCCCUGUCAGAUACUGGUGAAUCUGCGAAUUCUGCUGU,0.727
18,GGGGGCCACAGAAGAAGCGUUCACGUCGCGGCCCCUGUCAGAUUCUGGUGAACCUGCGAAUUCUGCUGU,0.232
19,GGGGGCCACAGGAGAAGCGUUCACGUCGCGGCCCCUGUCAGAUUCUGGUGAAUCUGCGAAUCCUGCUGU,0.458
20,GGGGGCCACAGGAGAAGCGUUCACGUCGCGGCCCCUGUCAGAUUCUGGUGAAUCUGCGAAUACUGCUGU,0.349
21,GGGGGCCACAGGAGAAGCGUCCACGUCGCGGCCCCUGUCAGAUUCUGGUGAAUCUGCGAAUUCUGCUGU,0.308
22,GGGGGCCACAGGAGAAGCGUUCACGUCGCGGCCCCUGUCAGAUUCUGGUGAAUCUGCGAACUCUGCUGU,0.282
23,GGGGGCCACAGGAGAAGCGUUCACGUCGCGGCCCCUGUCAUAUUCUGGUGAAUCUGCGAAUUCUGCUGU,0.377
24,GGGGGCCACAGGAGAAGCGUUCACGUCGCGGCCCCUGUCACAUUCUGGUGAAUCUGCGAAUUCUGCUGU,0.416
25,GGGGGCCACAGGAGAAGCGUUCACGUCGCGGCCCGUGUCAGAUUCUGGUGAAUCUGCGAAUUCUGCUGU,0.369
26,GGGGGCCACAGGAGAAGCGUUCACGUCGCGGCCCAUGUCAGAUUCUGGUGAAUCUGCGAAUUCUGCUGU,0.326
